From US20100144634A1 (published 2010) come the findings set out here.

Series [1] addresses B-domainless derivative of human factor VIII, FVIII-SQ, P00451.
For series [2], the target named is T1, human factor VIII derivative lacking the entire B domain and acidic region a3 (741-1689), FVIII-2RKR, P00451.
T1 chain 1: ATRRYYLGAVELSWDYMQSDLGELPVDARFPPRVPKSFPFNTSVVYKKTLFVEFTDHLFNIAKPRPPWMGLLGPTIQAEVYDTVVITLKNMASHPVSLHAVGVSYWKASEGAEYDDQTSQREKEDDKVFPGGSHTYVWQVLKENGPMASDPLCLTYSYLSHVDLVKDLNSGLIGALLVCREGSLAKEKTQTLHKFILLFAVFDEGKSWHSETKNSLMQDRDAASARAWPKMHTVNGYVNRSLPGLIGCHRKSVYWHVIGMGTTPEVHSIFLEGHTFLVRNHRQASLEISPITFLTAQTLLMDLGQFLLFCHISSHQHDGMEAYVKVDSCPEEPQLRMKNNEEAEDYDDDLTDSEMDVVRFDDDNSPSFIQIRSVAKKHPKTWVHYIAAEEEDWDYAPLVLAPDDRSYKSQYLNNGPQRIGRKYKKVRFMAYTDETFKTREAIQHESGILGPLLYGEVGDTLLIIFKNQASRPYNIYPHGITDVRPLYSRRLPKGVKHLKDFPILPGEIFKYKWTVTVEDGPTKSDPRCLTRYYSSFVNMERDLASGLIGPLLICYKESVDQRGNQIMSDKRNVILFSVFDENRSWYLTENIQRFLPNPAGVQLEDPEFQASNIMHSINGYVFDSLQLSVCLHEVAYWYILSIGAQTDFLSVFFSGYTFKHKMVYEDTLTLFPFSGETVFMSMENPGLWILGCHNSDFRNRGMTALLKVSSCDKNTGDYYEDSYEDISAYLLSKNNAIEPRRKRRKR
T1 chain 2: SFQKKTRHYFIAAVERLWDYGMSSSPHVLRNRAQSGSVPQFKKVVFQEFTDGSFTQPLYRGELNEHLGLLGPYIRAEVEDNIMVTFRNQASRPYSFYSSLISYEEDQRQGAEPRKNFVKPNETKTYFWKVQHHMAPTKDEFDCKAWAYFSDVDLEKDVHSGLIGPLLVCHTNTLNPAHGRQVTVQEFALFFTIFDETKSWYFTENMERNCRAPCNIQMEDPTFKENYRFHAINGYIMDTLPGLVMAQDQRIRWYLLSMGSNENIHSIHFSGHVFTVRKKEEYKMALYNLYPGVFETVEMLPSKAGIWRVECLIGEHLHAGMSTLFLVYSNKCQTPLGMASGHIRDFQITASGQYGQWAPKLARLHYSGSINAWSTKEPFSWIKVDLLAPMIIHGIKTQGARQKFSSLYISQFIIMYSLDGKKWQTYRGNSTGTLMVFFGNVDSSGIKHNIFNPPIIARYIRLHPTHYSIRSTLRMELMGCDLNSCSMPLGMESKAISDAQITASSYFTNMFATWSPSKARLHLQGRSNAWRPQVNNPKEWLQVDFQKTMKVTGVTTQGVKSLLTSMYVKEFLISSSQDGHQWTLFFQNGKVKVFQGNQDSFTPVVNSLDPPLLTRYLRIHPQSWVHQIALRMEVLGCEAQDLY

For series [3], the target named is recombinant human full-length coagulation factor VIII, P00451.
Series [4] deals with T2, von Willebrand factor (VWF), purified plasma-derived, multimeric, native (UniProt P04275 764-2813).
T2 construct: mature; human is implied; also called pvWF; plasma VWF
In words: SPR (BIAcore), VWF injected under flow over immobilised FL-A13, equilibrium fit, in the presence of 10 mM EDTA. The method, then:
(§1) Approximately 2,000 to 8,000 response units (RU) (2˜10 ng/mm²) of purified recombinant proteins were covalently attached onto the activated CM5 chip surface. The control surface was activated similarly, but blocked by same amount of BSA (Sigma, St. Louis, Mo.). The reactive groups on the dextran surface were blocked by injection of 35 μl of 1 M ethanolamine (pH 8.5) at flow rate of 5 μl per min for 7 min. Then, purified plasma VWF at various concentrations (0-250 μg/ml or 0-1,000 nM as in FIG. 3; 0-125 μg/ml or 0-500 nM as in FIG. 4) in 10 mM HEPES, 150 mM NaCl, pH 7.5 containing 0.005% Tween 20 and 2 mg/ml BSA (HBS-T) were injected and passed over the surface at injection rate 10 to 100 μl/min or 20 μl/min for 3-5 min. The HBS-T replaced the protein solution and continued to flow for approximately 4 min; further washing with HBS-T for 20-30 min regenerated the surfaces prior to the next injection. The dissociation constants, KD (S) at the equilibrium were determined by fitting the data from the binding isotherm using a non-linear regression curve on the PRISM4 software (GraphPad Software, Inc., San Diego, Calif.).
Fitting the data directly using BIAcore evaluation software, although it is relatively easy, may overestimate the binding affinity between VWF and ADAMTS13 due to the heterogeneity of VWF molecules. […]

Series [5] concerns the target T2, von Willebrand factor (VWF), purified …. In words: SPR (BIAcore), VWF injected under flow over FL-A13 immobilised on CM5, equilibrium fit, no EDTA. How it is done: as §1, with “Briefly, the surface of a carboxymethylated dextran (CM5) chip was activated by injection of 35 μl mixture (1:1, vol:vol) of 0.4 M 1-ethyl-3-(3-dimethylaminopropyl) carbodiimide and 0.1 M N-hydroxysuccinimide according to manufacturer's instruction (BIAcore, Uppsala, Sweden). Approximately” for “Approximately”, “The HBS-T replaced the protein solution and continued to flow for approximately 4 min; further washing with HBS-T for 20-30 min regenerated the surfaces prior to the next injection.” left out, “Calif.). […]” for “Calif.).”

In series [6] the target is T3, von Willebrand factor pre-denatured with 1.5 M guanidine-HCl at 37 C for two hours (UniProt P04275 764-2813).
T3 construct: mature; Same polypeptide as m1; also called VWF**; denatured VWF
In words: SPR (BIAcore), guanidine-HCl denatured VWF injected over immobilised FL-A13, equilibrium fit.

B1: full-length ADAMTS13, recombinant, C-terminal V5-His (enzyme, UniProt Q76LX8 75-1427, looked up, not shown: small tags and cut ends)
chain: AAGGILHLELLVAVGPDVFQAHQEDTERYVLTNLNIGAELLRDPSLGAQFRVHLVKMVILTEPEGAPNITANLTSSLLSVCGWSQTINPEDDTDPGHADLVLYITRFDLELPDGNRQVRGVTQLGGACSPTWSCLITEDTGFDLGVTIAHEIGHSFGLEHDGAPGSGCGPSGHVMASDGAAPRAGLAWSPCSRRQLLSLLSAGRARCVWDPPRPQPGSAGHPPDAQPGLYYSANEQCRVAFGPKAVACTFAREHLDMCQALSCHTDPLDQSSCSRLLVPLLDGTECGVEKWCSKGRCRSLVELTPIAAVHGRWSSWGPRSPCSRSCGGGVVTRRRQCNNPRPAFGGRACVGADLQAEMCNTQACEKTQLEFMSQQCARTDGQPLRSSPGGASFYHWGAAVPHSQGDALCRHMCRAIGESFIMKRGDSFLDGTRCMPSGPREDGTLSLCVSGSCRTFGCDGRMDSQQVWDRCQVCGGDNSTCSPRKGSFTAGRAREYVTFLTVTPNLTSVYIANHRPLFTHLAVRIGGRYVVAGKMSISPNTTYPSLLEDGRVEYRVALTEDRLPRLEEIRIWGPLQEDADIQVYRRYGEEYGNLTRPDITFTYFQPKPRQAWVWAAVRGPCSVSCGAGLRWVNYSCLDQARKELVETVQCQGSQQPPAWPEACVLEPCPPYWAVGDFGPCSASCGGGLRERPVRCVEAQGSLLKTLPPARCRAGAQQPAVALETCNPQPCPARWEVSEPSSCTSAGGAGLALENETCVPGADGLEAPVTEGPGSVDEKLPAPEPCVGMSCPPGWGHLDATSAGEKAPSPWGSIRTGAQAAHVWTPAAGSCSVSCGRGLMELRFLCMDSALRVPVQEELCGLASKPGSRREVCQAVPCPARWQYKLAACSVSCGRGVVRRILYCARAHGEDDGEEILLDTQCQGLPRPEPQEACSLEPCPPRWKVMSLGPCSASCGLGTARRSVACVQLDQGQDVEVDEAACAALVRPEASVPCLIADCTYRWHVGTWMECSVSCGDGIQRRRDTCLGPQAQAPVPADFCQHLPKPVTVRGCWAGPCVGQGTPSLVPHEEAAAPGRTTATPAGASLEWSQARGLLFSPAPQPRRLLPGPQENSVQSSACGRQHLEPTGTIDMRGPGQADCAVAIGRPLGEVVTLRVLESSLNCSAGDMLLLWGRLTWRKMCRKLLDMTFSSKTNTLVVRQRCGRPGGGVLLRYGSQLAPETFYRECDMQLFGPWGEIVSPSLSPATSNAGGCRLFINVAPHARIAIHALATNMGAGTEGANASYILIRDTHSLRTTAFHGQQVLYWESESSQAEMEFSEGFLKAQASLRGQYWTLQSWVPEMQDPQSWKGKEGT
notes: mature; also called FL-A13; FL-AD13
Regarding B1, the “increase of the initial rate of cleavage of FRETS-vWF73 and GST-vWF73 by ADAMTS13” value in series [1], in series [2] and in series [3] was “by a factor of 2 or 3” throughout. Further, the dissociation constant Kd in series [4] amounted to 77 nM; in series [5], 50 nM; in series [6], 83 nM.
